For the assay, the target named is T1, GST-fused ABI1 (Arabidopsis thaliana, UniProt P49597 1-434).
T1 construct: ABI1, PP2C clade A phosphatase, Arabidopsis thaliana, TAIR At4g26080; also called GST-ABI1; recombinant ABI1; not shown: GST, N-terminal, kept
T1 sequence (looked up): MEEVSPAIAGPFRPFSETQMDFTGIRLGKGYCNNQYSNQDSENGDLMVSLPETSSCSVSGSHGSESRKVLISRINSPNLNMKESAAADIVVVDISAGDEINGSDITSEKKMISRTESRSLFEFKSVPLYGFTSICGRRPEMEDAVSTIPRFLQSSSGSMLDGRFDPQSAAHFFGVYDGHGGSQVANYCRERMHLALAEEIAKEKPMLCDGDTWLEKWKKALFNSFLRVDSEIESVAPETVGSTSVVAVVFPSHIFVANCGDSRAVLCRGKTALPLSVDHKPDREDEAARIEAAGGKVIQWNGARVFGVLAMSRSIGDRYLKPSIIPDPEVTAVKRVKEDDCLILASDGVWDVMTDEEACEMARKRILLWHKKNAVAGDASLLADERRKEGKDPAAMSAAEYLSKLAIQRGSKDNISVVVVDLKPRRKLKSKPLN
The assay is described as follows: pull-down; GST-ABI1 or GST bound to Glutathione-Sepharose 4B beads, incubated with 10 ug recombinant SnRK2.4; 50 mM Tris-HCl pH 8.0, 50 mM NaCl, 0.01 % Triton X-100, 40 mM DTT; 45 min at RT, 5 washes; immunoblot with anti-SnRK2.4/SnRK2.10. The settings on record: both partners purified. In general terms: Immunoblotting shows a protein as a band on a membrane.

B1: recombinant SnRK2.4 (enzyme, Arabidopsis thaliana, UniProt P43291 1-363, looked up)
chain: MDKYELVKDIGAGNFGVARLMKVKNSKELVAMKYIERGPKIDENVAREIINHRSLRHPNIIRFKEVVLTPTHLAIAMEYAAGGELFERICSAGRFSEDEARYFFQQLISGVSYCHAMQICHRDLKLENTLLDGSPAPRLKICDFGYSKSSLLHSRPKSTVGTPAYIAPEVLSRREYDGKMADVWSCGVTLYVMLVGAYPFEDQEDPKNFRKTIQKIMAVQYKIPDYVHISQDCKNLLSRIFVANSLKRITIAEIKKHSWFLKNLPRELTETAQAAYFKKENPTFSLQTVEEIMKIVADAKTPPPVSRSIGGFGWGGNGDADGKEEDAEDVEEEEEEVEEEEDDEDEYDKTVKEVHASGEVRIS
notes: SnRK2.4, SNF1-related protein kinase 2 of group 1, Arabidopsis thaliana, TAIR At1g10940
For B1, the binding result is “binds”.
